Measured values reported in patent US20140287419A1, “Compositions Having Dicamba Decarboxylase Activity and Methods of Use” (priority 2013, published 2014).

Test: 14C assay with IPTG-induced recombinant E. coli cells (14CO2 capture from [14C]-carboxyl-labeled dicamba)
Conditions: for Dicamba Decarboxylase Activity: IPTG-induced recombinant E. coli cells, [14C]-carboxyl-labeled dicamba, 14CO2 capture; for Enzymatic Detection level: dicamba decarboxylation activity of the protein of the given SEQ ID NO

Molecule | Dicamba Decarboxylase Activity | Enzymatic Detection level
74 (protein, listed as Ramlibacter tataouinensis) MATVIDVHTHMFTTKWLELLKKEGGQYNIQTRPDGQQEIFRGNTPVVIPQKGHFDWKLRIQHMDQAGIDVSVVSLTCPNVYWGGEDVSVRAAREANDNVAQAQTAYPDRIRWFASLPWEYMATVIDVHTHMFTTKWLELLKKEGGQYNIQTRPDGQQEIFRGNTPVVIPQKGHFDWKLRIQHMDQAGIDVSVVSLTCPNVYWGGEDVSVRAAREANDNVAQAQTAYPDRIRWFASLPWEYPQRAVEELERSCAQGAAGVMVLANVAGRSLTDPLFAPVWAEIDRRALPVLVHPTDPPGVDLMDMTKFDLSWSVGFMFDTTLAITRMIFEGFFDRYPNLRIIASHGGGTLPYLVGRFEKGDEVELASRRQMKRKPTDYLRHIHYDCITYNLGALQYLISVVGAGQVMFGTDWPHWVHDTRGAFANTAQLPQEQTRAVRGANAQRLFKL | Low | Low
75 (protein, listed as Ectocarpus siliculosus) MAKIDSYTHFACPAFMDHLEAESGHPMVFRGLFSSIPELSDIDLRIRYMDEHGIDVHCLVPLPWLECEPGLHADEGKALEACRIANDEMARVVARFPDRLIGVALIPTTTEQAMIQETTRAVKELGMAGVALFVGPTAKPPDMACFEGLYRTCEELGAVVWMHPCRPQSYADYDSYKGEGSKHQIWNTFGWIYDTSVAMVHIALAGVFRRYPGLKVVTHHHGAMVPFFTARFDTQRRNFQEVEGDDLLEDLRLFYCDTATFGESAANIQQAIDFFGKSQVLFGTDTPMDMGTRGMFTRTTIASVEALGAAPEDKESFYAGNVLDMLGERFAGISGARGAVAARPKGDSTRIAASL | Low | Low
76 (protein, listed as Polymorphum gilvum) MAKKIDIFNHIWPEPFFKALIAHIGEMTDITMRSGAVPMMTNLDRRFEVMDMFGPDYMQVLSLASPPLEKLADPAKALELSRIGSDSLAELCQRYPERFPAFIGTAPLSNPAAVVGECRRAIEDLGAAGMQIFTNVAGKPLDLAEFEPFFEYMASAGKPVWLHPARGEAFADYQTEKRSEYEIWWTFGWPYETSAAMARLVFSRMFDKYPGLKVITHHAGGMVPFFEGRVGPGWDQMGARTTDRDLAAVRKALKRPHLDYFKEFYADTASFGSRKAIEHAIEFFGEDRVLFASDAPFDPEGGPMYIRETMRCIDSLDLTDAQRRKIYHGNATALLGLSL | No | No
77 (protein, Burkholderia xenovorans) MALIDLHAHAPHPGYYNQHPHWGPFFERHEDGDVKLRVGDWILTLGSPERKALVRAGKGPTVEEYQARWADPKVRLAGMDAAGQNAQVVSVPSHCYMYWAEKEFSVPFATKVNDTFAEYCSAAPDRLMFWAHAALNAPEQAALELRRACTELGAKGLVAGGANFGGLEFDSPELDPVWKVLCDLDLPMFIHGYNQSVTWGKKANDDRYETTAIVGMQYDETRCFWNLVCGGVLDRFPGLKVYITHGGGYVPYQLGRLAQCNGNLDVAHNKKPVLEYLKNNFYFDVELHEVPMRQALIDIIGADRVLYGSNFGGSDAVRHDLTEGLRLSDDDLQKIRWKNACKLLHLDPAKIGEPAKKQAVSA | No | No
78 (protein, listed as Marinobacter adhaerens) MALIDLHAHAPHPDYYDQHPHWGPAFELQSDGDIKLRVGHWVLSLGAPERKQALREAHARGETLDVQEYMAKWRDPEHRLASMDAAGQNAQVLSVPSHCYMYWAEPEFGVPFAKKVNDSLAEYCSAAPDRLMFWAHAPLNVPKEAAKEIRRACTELGAKGLVAGGSNFGGLEFDSPEMDPVWEALCDLDLPMFVHGYNQSVTWGEEANTDRYETTAIVGMNYDESKCFWYMINGGVFDRFPNLKVYITHGGGFVPYQLGRMAQTNPNLDTYHNKKPFLEYLKNFYFDVELHEVPMRQAMVEVIGADRVLYGSNFGGSDAVRHDLTDDLKLSQEDLDKIRWKNACDLLHLDPNKLGKVRG | Low | Low
79 (protein, Pyrenophora teres) MATTTTPSTLIATLESHLTPTLAFTSPTTSPTQPALHLIPPTTLTKLRNLGPGRVKDMHMLGHSRQIISHIPVAAPPQICSRFNDAIHAATMTNTAKFSVLAVLPTDGMEAAKELARCVSKYRFVGGVIGLNRGLRINGEGWEELWGLAERLRIPIMFREMWPLAFEIVDYQHHLPYSALGPILTQLHTSHTSSPLPLVRLYLSSVFDHYPSLRLVLAHPGSLPSLVPRIESLINSIPATDKPKRSFLDVWQHNIYLTTADAQDMSSLRALLEQIPVDRVLYASNYPFEERGNELMNELRESEFLTNIEWERVAWVNAETLFNLKEAGTKEARQLTTIPSSRS | High | High
6 (protein, Treponema brennaborense) MAEILSPEESIYYSKLSNDILAEGIKKNPTRFRGFAALPTPDPIQAAMELERCIKLGGFVGAIINGHINGHYLDEIQFDPILEAADALDVPLYIHPAVPPKAIIDTYYKMNDTYAQTVMVSGGWGWHIETGVHVLRLISSGVFDRHPNLKIVIGHLGEGLPFFMHRLNNAIGGNLKKSYSTYLKENIYYTISGFNDPDLFQFVLKKVGENNIMFSSDYPFNFPKREVELFNELNISEEVREKISFKNAERILKI | No | No
80 (protein, listed as Cordyceps militaris) MAAASTPVVVDIHTHMYPPSYIAMLEKRQTIPLVRTFPQADEPRLILLSSELAALDAALADPAAKLPGRPLSTHFASLAQKMHFMDTNGIRVSVISLANPWFDFLAPDEAPGIADAVNAEFSDMCAQHVGRLFFFAALPLSAPVDAVKASIERVKNLKYCRGIILGTSGLGKGLDDPHLLPVFEAVADAKLLVFLHPHYGLPNEVYGPRSEEYGHVLPLALGFPMETTIAVARMYMAGVFDHVRNLQMLLAHSGGTLPFLAGRIESCIVHDGHLVKTGKVPKDRRTIWTVLKEQIYLDAVIYSEVGLQAAIASSGADRLMFGTDHPFFPPIEEDVQGPWDSSRLNAQAVIKAVGEGSSDAAAVMGLNAVRVLSLKAE | Low | Low
81 (protein, listed as Verticillium dahliae) MAASTKPKVVDIHTHMYPPSYIDILTSRTAIPVVRTFPQAADPRLILLDAEQQALDAALQDPTAKPPGRPLTSHYASLDQKIHFMDTHSIDISVVSLANPWLDFIEPKEAAATARSVNDEFEAMCASQPGRLFFFAALPLTAPLPALLEAVRHVAELEHCRGVILGTSGLGSGLDDPELVPVLEAVAAAALTVFLHPHYGLPNDVWGPRASAEYGHVLPLALGFPMETTIAVARMYLAGVFDRVPALRMLLAHSGGTLPFLAGRIESCILHDGQLVAEGKVGAARRTIWDVLREQVYLDAVIYSEIGLKAAIAASGGADRLMFGTDHPFFPPLGTDEQAKKESRINAGGSRPMITGNAMINGHGGLCNHITQSDYQDVVL | High | High
82 (protein, listed as Rhodopseudomonas palustris) MAQNETPVIAIEEHYWDPEMVARFPAGENASPFSTLLTELGDVRLRAMDEAGIDVQVLSHGAPAAQKLPPDVAPELTRRVNDRLAEACARFPNRFAAFAALPTPAPEAAARELERCVRDLGFKGAMIHGLTNGLFIDDKRFWPIFEVAEKLDVPIYLHPSVPHADVTRYYYDDYAREFPTVIRPAWGFTVETATQAIRLILSRALESYPRLQIILGHLGETLPFLLWRINQALARPGQTPLDFRKQFCDHFHVTTSGFFSTPALICTMLELGIDRIMFAVDYPYVVNRDGTDWVQQLQISPDDKRKLVGGNARRLLKL | Low | Low
83 (protein, listed as Mycobacterium rhodesiae) MALIALEEHYAWSPVSAGNVVGSWLETHNVTAYQRLYDRGPLRLEQMDAAGIDFQILSLFDPGVQDDDDTARAVENARRANDDLAETVRAAPDRFGGFATLAPQDPDAAAAELERAVGELGLVGGLINGHTHGRYLDDPAYLGLFECAQRLGVPIYLHPTTPHPAVMDAWFAPYVKDGLHLASWGFAAETGTHALRLIYSGLFDTFPRLQMILGHLGEMLPYAAYRIDRYYGLGGGDDGGRLARLPSEYLRDNFHVTTSGNFNPVAFACALDVMGPDRLMFSVDYPMDDNVTGAEFLRNLEVDDDVRRKVAGENALQLFGDKIPRR | Low | Low
84 (protein, listed as Mycobacterium rhodesiae) MASLIALEEHYAWDPASEGNVVATWLRANNGVAYDRLYDRGPLRIEQMDAAGIDFQILSLFDPGVQDEVDAVRAVDLARRANDDLAESVRANPSRFGGFATLATQQPDAAVAEFDRAVTELGLVGGLINGHCQGRYLDDPAYEALFSRAEALGAPIYLHPTTPHPAVMDAWFAPYVGDGLHLASWGFAAETGTHVLRLIYSGLFDKFPRLQMIIGHLGEMLPFAAYRIDRYYGLGGGGTGHTLQHLPSDYLRNNFHVTTSGNFCSPALDCTLDVMGADRVMFSVDYPMDDNQTGADFLASYPMDDTNRRKVASENALRLFGDRIPAALRN | Low | Low
85 (protein, listed as Maritimibacter alkaliphilus) MAADRKPGLVSVEEGFMIPEVVAELSRIAGGVPSMKSGPIAGPFMDDLLDIGKGRVARMDADGVAVQILALAAPGVQKFDPDTALALSRLTNDRLAEAIAAHPARFGGLAAAPPQAAREGAKELDRAITTLGLNGLIVNSHTNDLYLDDPSFWPLLEAAEALDVPVYLHPREPAAGIEGGLMAMTGFTVGWAYAVETGTHLLRMIAAGVFDRFPRLRIVLGHLGEMIPFMLDRIDNRYPFEMGVTGAKPLPRKPSDYFRDHVTVATSGMNFNAPMRAAIEVLGADKVMFAADYPMERQDEEVAKFAALDLTPDERKRIGEDNARRVFGL | Low | Low
86 (protein, listed as Sphingopyxis alaskensis) MALGASVASREASAQMAKAPMRKIATEEAFATPELAKAWLEIARSEPNSSLDIPTGILSIFDNPRPGSNQDRFRRQLLDVDAERIRDMDEAGVDMQLLSVTIPGVQIFEPARAGELAVTTNDHLAAAIARRPTRFAGLACFAPHDPVQATREMERAVNALGLKGFIVNSHTQDLYLDDPRFAPVLEAAQSLDCPIYLHPRAPSNGMAAPFRDYSMGGSIWGFGVEAGTHAVRMILSGVFDRYPRLRIVLGHMGEALPFWMWRLDHMAARRAKDGRMKPLSLAPSEYFKRNFAVTTSGFESPDVLDLVIKVAGIENIMWAIDYPYESSRDAVTFIEGADLTASQRASIFHRNAVRHFRLS | Low | Low
